This is an account of results in PMC8025756.

Like-named read-outs stand apart in the source and are kept apart here.

The target in test [1] is two-chain factor VII-activating protease (tcFSAP) (human). The experiment in a line: SDS-stable complex formation, SDS-PAGE and Western blot.
The target is the same in test [2]. The test can be described thus: enzyme inhibition kinetics.
Test [3] has the same target. The test can be described thus: enzyme inhibition kinetics. This is another data set of the same source.
For test [4] the target is unchanged. The experiment in a line: enzyme inhibition kinetics. The source holds these as a separate data set.
Test [5] has the same target. The experiment in a line: enzyme inhibition kinetics. The source holds these as a separate data set.
The target is the same in test [6]. The experiment in a line: enzyme inhibition kinetics. This is another data set of the same source.

In turn, “recombinant human wild-type plasminogen activator inhibitor-1 (PAI-1) (from UniProt P05121 24-402) (natural protein)” had a stoichiometry N in test [1] of 1. Moreover, the second-order inhibition rate constant Ka in test [2] is 443000 M⁻¹ s⁻¹; in test [3] it was 623000 M⁻¹ s⁻¹; in test [4] it was 1.61e+06 M⁻¹ s⁻¹; in test [5], 558000 M⁻¹ s⁻¹; in test [6], 338000 M⁻¹ s⁻¹.

As a reminder, the stoichiometry N is the number of molecules, sites or subunits per partner or assembly.
